Reference: paper PMC4385932, “A transgenic mouse model to inducibly target prosurvival Bcl2 proteins with selective BH3 peptides in vivo” (Cell Death & Disease, 2015)

Biological target: T1, Bcl-xL (UniProt Q07817-1 1-233)
T1 construct: Bcl-xL, prosurvival Bcl-2 family protein
Assay: SPR; no format or conditions told

T1 sequence (Q07817 whole entry): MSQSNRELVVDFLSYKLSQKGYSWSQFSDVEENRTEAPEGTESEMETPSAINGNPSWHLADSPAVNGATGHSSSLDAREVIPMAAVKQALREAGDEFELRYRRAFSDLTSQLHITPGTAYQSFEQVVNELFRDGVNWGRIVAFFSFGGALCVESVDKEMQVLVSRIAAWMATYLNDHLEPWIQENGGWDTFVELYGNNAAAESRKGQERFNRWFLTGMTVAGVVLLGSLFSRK

| Kd | Binder |
| --- | --- |
| 8.5 nM | BimSBad^mut (BimSBad with the Bad BH3 residue F121 mutated to alanine) (ligand, N-terminal FLAG tag left out. Same conventional swap limits and species assumption as m1.) MAKQPSDVSSECDREGRQLQPAERPPQLRPGAPTSLQTEPQASMRQAEPANLWAAQRYGRELRRMSDEAVDSFKKGVFLNNYQAAEDHPRMVILRLLRYIVRLVWRMH |
| < 0.2 nM | BimSBad (BimS BH3-only protein in which the native BH3 sequence is replaced by the BH3 domain of Bad) (ligand, N-terminal FLAG tag left out. BimS = BimEL lacking 42-131. Swap limits are only in Figure 1a; the conventional 26-mer exchange is used (Bim 141-166, which is BimS 51-76, replaced by Bad 103-128). The) MAKQPSDVSSECDREGRQLQPAERPPQLRPGAPTSLQTEPQASMRQAEPANLWAAQRYGRELRRMSDEFVDSFKKGVFLNNYQAAEDHPRMVILRLLRYIVRLVWRMH |
